The numbers were not newly measured in article PMC3962485, which cites them from elsewhere.

The data set addresses Hsc70 (UniProt P11142).
Sequence of UniProt P11142 (P11142 2-646): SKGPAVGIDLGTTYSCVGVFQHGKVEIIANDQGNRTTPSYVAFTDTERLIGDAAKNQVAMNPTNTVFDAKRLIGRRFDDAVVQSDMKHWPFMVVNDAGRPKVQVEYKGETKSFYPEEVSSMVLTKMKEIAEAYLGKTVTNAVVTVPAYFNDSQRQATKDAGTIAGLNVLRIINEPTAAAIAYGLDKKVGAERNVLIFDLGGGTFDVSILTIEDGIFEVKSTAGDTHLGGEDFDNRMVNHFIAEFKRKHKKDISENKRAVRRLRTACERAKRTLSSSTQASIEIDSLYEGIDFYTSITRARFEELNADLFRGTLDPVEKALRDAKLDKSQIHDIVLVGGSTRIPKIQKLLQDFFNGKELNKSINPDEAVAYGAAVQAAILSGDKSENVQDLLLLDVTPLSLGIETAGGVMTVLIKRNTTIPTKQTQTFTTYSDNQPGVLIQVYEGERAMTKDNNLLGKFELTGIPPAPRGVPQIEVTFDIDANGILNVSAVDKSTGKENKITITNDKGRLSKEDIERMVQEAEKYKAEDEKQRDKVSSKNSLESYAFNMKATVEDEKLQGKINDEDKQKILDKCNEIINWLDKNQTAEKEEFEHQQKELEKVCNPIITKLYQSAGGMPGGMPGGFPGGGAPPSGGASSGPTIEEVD

Usually Kd stands for the constant that tells how readily two partners part at equilibrium. Turning to Snl1-M (from UniProt P40548), the dissociation constant Kd was 5 µM.
